From patent publication US6264958

How the values were obtained:
[1] = target: murine IL-6 receptor (murine) (UniProt P22272)
[2] = target: recombinant human IL-6 (human)

% Inhibition of B9 cell proliferation driven by 10 pg/ml hIL-6 (MTT, Absorbance570) [2] | Substance | % Inhibition of B9 cell proliferation driven by 10 pg/ml hIL-6 (MTT, Absorbance570) [1] | % Inhibition of B9 cell proliferation driven by 1:40 vIL-6 sup (MTT, Absorbance570) [1]
 | functionally neutralizing monoclonal antibody directed against the murine IL-6R (D7715A7, Pharmigen) | 80 % inhibition | 53.8 % inhibition
23.4 % inhibition | monoclonal antibody directed against murine IL-2 (S4B6, Pharmigen) |  | 
